Experimental data as given in the supplement of paper PMC9170038.

Tested on: MS2 coat protein
Experiment: apparent KD of MS2 coat protein; designed switch direction (-1 OFF switch, 1 ON switch): -1; higher = weaker reporter binding
Summary of the method: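 For each design, the apparent KD is the median over clusters of curves fitted to normalised cluster fluorescence. Clusters held RNA switches with common flanks, transcribed on Illumina chips by stalled E. coli RNA polymerase. These were titrated with SNAP-549-labelled MS2 coat protein, doubling from 0.7 or 1.5 nM to 3 µM, without input, with 200 uM small-molecule ligand, or with an oligonucleotide input.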

[1] = input ligand: microRNA oligo, concentration not stated
[2] = Eterna round: R95, input ligand: FMN 200 uM
[3] = Eterna round: R95, input ligand: microRNA oligo, concentration not stated
[4] = Eterna round: R95, input ligand: none

| Sequence | apparent KD of MS2 coat protein (input ligand: FMN 200 uM) | apparent KD of MS2 coat protein (input ligand: none) | apparent KD of MS2 coat protein [1] | apparent KD of MS2 coat protein [2] | apparent KD of MS2 coat protein [3] | apparent KD of MS2 coat protein [4] |
| --- | --- | --- | --- | --- | --- | --- |
| CCAAGCUUAUUCAUUAACCACAUGAGGAUCACCCAUGUCUAGGCAAUUAUGACUUGCCCAUCAGGUGCUCGUCUUAU [Sensor-V1 #33] (Eterna round: R97, puzzle: Sensor, turn-off variant 1) | 68.7 nM | 72.3 nM | – | – | – | – |
| GCGCGAAGGUAGGAUAUCCGGGCAUCUUGCCGCGGAGAAGGACCCACAUGAGGAUCACCCAUGUGGUGAUCCUG [eternacac ex6r4 sub12] (Eterna round: R97, puzzle: Exclusion 6) | 40.8 nM | 19.4 nM | – | – | – | – |
| GCGGACUAGUUCGUGAGAACUGAGACAUGAGGAUCACCCAUGUAGGAUAUCGAUUCGAAACGAAUCGAGAAGGGCAUAGUCCGC [JL denovo 9] (Eterna round: R96, puzzle: Exclusion NG 3) | 25.1 nM | 26.8 nM | 17.7 nM | – | – | – |
| AAGAUGUCAGGAUAUUAGUAGUAAAUAAAUAAAAUUAUUACUGAGAAGGGACAUGAGGAUCACCCAUGUGCCUU [Salish 062 v10] (Eterna round: R97, puzzle: Exclusion 4) | 16.4 nM | 16.9 nM | – | – | – | – |
| AAGAUGUGAGGAUAUCACGAAGGCGUCAAACUGACGCCUUCUGAGAAGGCACAUGAGGAUCACCCAUGUCCAAA [EX4 A.23] (Eterna round: R97, puzzle: Exclusion 4) | 325 nM | 58.6 nM | – | – | – | – |
| CUGUGCACGCUGCGAUCCUACAUGAGGAUCACCCAUGUGGUCUGGUGGCGUGGGUCACCGGACUUGGCUCGUCUUGC [salish99_S_TOV1_R5_071] (Eterna round: R97, puzzle: Sensor, turn-off variant 1) | 31.4 nM | 31.6 nM | – | – | – | – |
| AAUAACUGAGGAUAUACUAUAAUAUGAAUAAAAUAAAUAAAACAUGAGGAUCACCCAUGUAGAAGGCAGAAUAA [JMF's Not so obvious solution 9] (puzzle: Exclusion 2) | – | – | – | 23.2 nM | 17.8 nM | 24.1 nM |
| UAUUAGGGAGGAUAUCGCAGUUGCAACAUGAGGAUCACCCAUGUGAACAGCCUCACCAAUCGAGAAGGCCUGAGUG [Eternabot (L2) Solution 59] (Eterna round: R97, puzzle: Exclusion 5) | 71 nM | 75.5 nM | – | – | – | – |
| GUAGAGUCAGGAUAUACGAGAUCGAUAGAUCGGCGAUCCAAACAUGAGGAUCACCCAUGUAGAAGGGACUCUAC [Mat - Exclusion 2 - Eli Mod - D4] (Eterna round: R97, puzzle: Exclusion 2) | 1160 nM | 41.6 nM | – | – | – | – |
| UCGGCGCGAGGAUAUGCGGUUUGUGCUUUGGGCCCUGGCGUACAUGAGGAUCACCCAUGUAGAAGGCGUGUUGC [Apr-15 SS2-49] (puzzle: Exclusion 2) | – | – | – | – | 17.9 nM | – |
| CGUAGCAAUGUGAGGAUAUCUAGAGCUUCGGCUCUAGAGAAGGCACAUGAGGAUCACCCAUGUGAUUAGCUACG [BmEx4/9-B1] (Eterna round: R97, puzzle: Brourd's mod of Exclusion 4) | 989 nM | 347 nM | – | – | – | – |
| GAGUGACAUGAGGAUCACCCAUGUGAGGAUAUCGGACGGACCUUGUUAGCUUCCGCCGCGAGAAGGCACAUCGG [Exclusion 1 V25] (puzzle: Exclusion 1) | – | – | – | – | 94.3 nM | – |
| UUUUACUCAGGAUAUAUGAUGUGAAACAUGAGGAUCACCCAUGUAAUAUUAUGGAUGUAAAUAGAAGGGAGAUUUA [Mat - Exclusion 5 - JL mod - D16] (puzzle: Exclusion 5) | – | – | – | 46.4 nM | 45.5 nM | 59.5 nM |
| GAUCCUUCUGUUAGGAUAUGCUUUGGGCUUCCGCAGCAGAAGGAACAUGAGGAUCACCCAUGUCAAAUACCAUC [salish99_bmex4_r4_503] (Eterna round: R97, puzzle: Brourd's mod of Exclusion 4) | 23.1 nM | 23.1 nM | – | – | – | – |
| UUGGUUGUGGUAGGAUAUCCGUUGGAAACCGUUGGAGAAGGACCACAGUCACUGGGUCUUUGUUUGGUGGAGUGGAAGAACCAU [pwkr exNG1 F6.19] (Eterna round: R96, puzzle: Exclusion NG 1) | 1020 nM | 349 nM | 210 nM | – | – | – |
| GUGACCAUAGGAUAUACAUGAGGAUCACCCAUGUGCAAGUCGGAAGACCUGCGGUCAUGUAGAAGGAUGUAAUU [EX3 A.19] (Eterna round: R97, puzzle: Exclusion 3) | 18.3 nM | 20.9 nM | – | – | – | – |
| AUAAGUGAUAAGGAUAUUACUAGCCUCGGCUAGUGAGAAGGUAUCACAUGAGGAUCACCCAUGUGUUCCAAUAA [Ex6/7-B2] (Eterna round: R97, puzzle: Exclusion 6) | 297 nM | 119 nM | – | – | – | – |
| GAUUAUGCGAGCUUUAGGGACAUGAGGAUCACCCAUGUUCGUCUUAUUGGUCUGGGUACACUAACAUACCUAAAUCU [JMF 22] (puzzle: Sensor v3, turn-off variant 1) | – | – | – | 33.4 nM | 47.9 nM | 36.2 nM |

| Sequence | apparent KD of MS2 coat protein (input ligand: FMN 200 uM) | apparent KD of MS2 coat protein (input ligand: none) | apparent KD of MS2 coat protein [1] | apparent KD of MS2 coat protein [2] | apparent KD of MS2 coat protein [3] | apparent KD of MS2 coat protein [4] |
| --- | --- | --- | --- | --- | --- | --- |
| UAGUACAGAGGAUAUACAUGAGGAUCACCCAUGUGUUUCAGCUAGGAGACUAGCGAAAGUAGAAGGCUGUACUA [salish99_ex3_r4_008] (Eterna round: R97, puzzle: Exclusion 3) | 22.9 nM | 9.42 nM | – | – | – | – |
| CGUGACUCAGGAUAUCUAUUAUGUCACAUGAGGAUCACCCAUGUCCAGCGAAAGCUGGAGGGAGAAGGGAGUCACG [Fiskers Ex 5 - 45] (puzzle: Exclusion 5) | – | – | – | – | 118 nM | – |
| AAAUAGGUAGGAUAUACAUGAGGAUCACCCAUGUGCUGCCGCGCGUCAAUCUCUUCACGUAGAAGGGCCCAGAC [Reveara] (Eterna round: R97, puzzle: Exclusion 3) | 13.1 nM | 14.1 nM | – | – | – | – |
| CUGAGGUAGCGGUCCUAUGACAUGAGGAUCACCCAUGUACCUUGCUACGAGCUUUUUGCUCGUCUUAUAAUUCUCGG [JL Atriat mod 3] (puzzle: Sensor v3, turn-off variant 1) | – | – | – | 466 nM | 91.5 nM | 526 nM |
| AAAUCGUGAGGAUAUCCAAUAUAUGACAUGAGGAUCACCCAUGUUUCCACUCGUACCUCCGGAGAAGGCACAAUAA [Ex5 #75] (Eterna round: R97, puzzle: Exclusion 5) | 27.2 nM | 27.1 nM | – | – | – | – |
| GCAGUCAAAGUGAGGAUAUCUAGAGCGAUAGCUCUAGAGAAGGCACAUGAGGAUCACCCAUGUGAUCAGACUGC [BmEx4/7-A4'1] (Eterna round: R97, puzzle: Brourd's mod of Exclusion 4) | 605 nM | 257 nM | – | – | – | – |
| UCUAGCUUUUUGCGUCAAGCAUUGAAGUCUGUGAUCGUAACAUGAGGAUCACCCAUGUAAGUUUUAUGUCGUCUUGU [JR_SV3TOV2_Sub098] (puzzle: Sensor v3, turn-off variant 2) | – | – | – | 47.8 nM | 41.4 nM | 63.3 nM |
| CCGGUUCAUUAGGAUAUGCAGGUGAACGGUGCCGUAGAAGGAAUGACAUGAGGAUCACCCAUGUAGAGGAAGUG [Eternabot (L2) Solution 82] (Eterna round: R97, puzzle: Exclusion 6) | 36.8 nM | 55.1 nM | – | – | – | – |
| UAAGGUCGUCAAUACCUAACCACAUGAGGAUCACCCAUGUCUGAGGAUAUGAAGGCGGCCCGCCAUUAGAAGGCAGCAAGGGAA [Ustiarmadi] (Eterna round: R96, puzzle: Exclusion NG 3) | 13.2 nM | 14.4 nM | 7.89 nM | – | – | – |
| CGGAUGUUAGGAUAUUAGUAGUAGUCAGAAUAGACUAUUACUGAGAAGGAACAUGAGGAUCACCCAUGUAUCCG [Eli x4 4.20] (Eterna round: R97, puzzle: Exclusion 4) | 47.4 nM | 17.7 nM | – | – | – | – |
| UUUUAACAUGAGGAUCACCCAUGUGAGGAUAUCGAAAUUUAUAUUAAUAUUUAUAUUUCGAGAAGGCACAUUUU [JMF 57] (puzzle: Exclusion 1) | – | – | – | – | 153 nM | – |
| AAUUAUUGAUGAGGAUAUUGUGGUGAAACACGACAAGAAGGCAUUUUUCACAUGAGGAUCACCCAUGUGAGCCUUGUGCAUAUA [Ex NG1 #62] (Eterna round: R96, puzzle: Exclusion NG 1) | 17.3 nM | 15.2 nM | 11.5 nM | – | – | – |
| AAUAACAGAGGAUAUACUAUUUUAUGUAUUUAUUAUUUUAAACAUGAGGAUCACCCAUGUAGAAGGCUGAUUAA [JMF 42] (puzzle: Exclusion 2) | – | – | – | – | 30.8 nM | – |
| AGUACUAACACGAGAGUGUUAGUACUAUAAGCUUGUGUUACAUGAGGAUCACCCAUGUCCUCAUAAGCUCGUCUUAA [Mat - Sensor v3 - Turn-off var 2 - D64] (puzzle: Sensor v3, turn-off variant 2) | – | – | – | 33.3 nM | 185 nM | 35.8 nM |
| CAGGGCAUGCGAGGAUAUAGCAACAUGAGGAUCACCCAUGUAUAAGGGUGUCCUAGGCAUGCGCGCUAGAAGGCGCUGGUUCUC [Onreusve] (Eterna round: R96, puzzle: Exclusion NG 2) | 431 nM | 75.5 nM | 18.9 nM | – | – | – |
| AAGAAACAUGAGGAUCACCCAUGUGAGGAUAUGUAAAAGAAAAGAAAAUAAAGAAGAAACAGAAGGCACAAAGG [Mat - Mod of Hog D21] (puzzle: Exclusion 1) | – | – | – | 51.8 nM | 39.1 nM | 31.8 nM |
| AUGGACGCAGGAUAUACAUGAGGAUCACCCAUGUGAGGUAGGUAAGUAGGAAGUGAAGGUAGAAGGGCGAGAGA [JR_Exclu3_Sub096] (puzzle: Exclusion 3) | – | – | – | – | 59.4 nM | – |
